Laboratory results: US20220227873A1 (COUNCIL OF THE QUEENSLAND INSTITUTE OF MEDICAL RESEARCH, published 2022)
Substitutions are numbered along the chain they refer to.

B1: P9-11 (antibody, IgG1, V domains shown)
VH: EVQLVESGGGLVQPGGSLRLSCAASGFTFSSYYIHWVRQAPGKGLEWVAYISPSGGYTYYADSVKGRFTISADTSKNTAYLQMNSLRAEDTAVYYCARGAVLYSSAMDYWGQGTLVTVSS
VL: DIQMTQSPSSLSASVGDRVTITCRASQSVSSAVAWYQQKPGKAPKLLIYSASSLYSGVPSRFSGSRSGTDFTLTISSLQPEDFATYYCQQYYPSPSTFGQGTKVEIKR
notes: Tested as bivalent monospecific native human full-length IgG1; also called ABS clone P9-11
B2: P9-24 (antibody, IgG1, V domains shown)
VH: EVQLVESGGGLVQPGGSLRLSCAASGFTFSSYFIHWVRQAPGKGLEWVASIYPTSHSTSYADSVKGRFTISADTSKNTAYLQMNSLRAEDTAVYYCARLGYPGVMDYWGQGTLVTVSS
VL: B1 VL with Y91V, Y92D, P93S, S94R, P95L, S96A
notes: Tested as bivalent monospecific native human full-length IgG1; also called ABS clone P9-24
B3: P9-34 (antibody, IgG1, V domains shown)
VH: B2 VH with S31T, S50Y, T54Q, S55G, H56G, S57Y, S59Y, L99Q, G100S, M105F
VL: B1 VL with Y91W, Y92T, P93I, S94A, P95L, S96T
B4: P9-37 (antibody, IgG1, V domains shown)
VH: EVQLVESGGGLVQPGGSLRLSCAASGFTFWKYGIHWVRQAPGKGLEWVAYIYPAGGITSYADSVKGRFTISADTSKNTAYLQMNSLRAEDTAVYYCARSDYYSGMGMDYWGQGTLVTVSS
VL: B1 VL
notes: Tested as bivalent monospecific native human full-length IgG1; also called ABS clone P9-37
B5: P9-57 (antibody, IgG1, V domains shown)
VH: B2 VH with F33Y, S50T, T54S, S55G, H56G, S57Y, S59Y, L99Y, G100S, M105L
VL: B1 VL with Y91S, Y92S, P93S, S94F, P95L, S96W
notes: Tested as bivalent monospecific native human full-length IgG1; also called ABS clone P9-57
B6: P9-25 (antibody, IgG1, V domains shown)
VH: B2 VH with F33Y, T54Y, S55G, H56S, S57Y, S59Y, P102S, G103S, V104G
VL: B1 VL with Y91W, Y92A, S94D, P95L, S96T
notes: Tested as bivalent monospecific native human full-length IgG1; also called ABS clone P9-25
B7: P9-50 (antibody, IgG1, V domains shown)
VH: EVQLVESGGGLVQPGGSLRLSCAASGFTFSSYVIHWVRQAPGKGLEWVALIYSSGGYTQYADSVKGRFTISADTSKNTAYLQMNSLRAEDTAVYYCARVGTTYPSRYLEALDYWGQGTLVTVSS
VL: B1 VL with Y91F, Y92G, P93S, P95L, S96P
notes: Tested as bivalent monospecific native human full-length IgG1; Heavy chain copied as printed: it ends 'SLSPG' without the last K; also called ABS clone P9-50

Each binder was assayed against human GAL9 of the human PBMC cultures (human) (assay: cell-based or functional assay).

Binder | INF-γ 72 hr, Fold change, Average | INF-γ 72 hr, Fold change, Donor 19 | INF-γ 72 hr, Fold change, Donor 25 | INF-γ 72 hr, Fold change, Donor 27 | INF-γ 72 hr, Fold change, as % | INF-γ 72 hr, pg/ml, Donor 19 (HCMV-peptide stimulated PBMCs) | INF-γ 72 hr, pg/ml, Donor 25 (HCMV-peptide stimulated PBMCs) | INF-γ 72 hr, pg/ml, Donor 27 (HCMV-peptide stimulated PBMCs)
B1 | 0.68 fold | 0.99 fold | 0.52 fold | 0.53 fold | 68.2% | 5890 pg/mL | 23000 pg/mL | 891 pg/mL
B2 | 0.8 fold |  | 0.82 fold | 0.78 fold | 87.6% |  | 35700 pg/mL | 1260 pg/mL
B3 | 0.88 fold |  | 1.01 fold | 0.74 fold | 87.6% |  | 44400 pg/mL | 1050 pg/mL
B4 | 0.55 fold | 0.55 fold |  |  | 54.6% | 3230 pg/mL |  | 
B5 | 0.83 fold | 0.83 fold |  |  | 83.4% | 4940 pg/mL |  | 

Target: human GAL9 of the human PBMC cultures (human)
Assay: cell-based or functional assay
Remark: another data set of the same source

Binder | TNF-α 72 hr, Fold change, Average | TNF-α 72 hr, Fold change, Donor 19 | TNF-α 72 hr, Fold change, Donor 25 | TNF-α 72 hr, Fold change, Donor 27 | TNF-α 72 hr, Fold change, as % | TNF-α 72 hr, pg/ml, Donor 19 (HCMV-peptide stimulated PBMCs) | TNF-α 72 hr, pg/ml, Donor 25 (HCMV-peptide stimulated PBMCs) | TNF-α 72 hr, pg/ml, Donor 27 (HCMV-peptide stimulated PBMCs)
B1 | 0.64 fold | 0.78 fold | 0.76 fold | 0.4 fold | 64.7% | 607 pg/mL | 982 pg/mL | 374 pg/mL
B2 | 0.54 fold |  | 0.75 fold | 0.32 fold | 53.5% |  | 962 pg/mL | 299 pg/mL
B3 | 0.74 fold |  | 0.68 fold | 0.79 fold | 73.7% |  | 874 pg/mL | 596 pg/mL
B4 | 0.55 fold | 0.55 fold |  |  | 55.2% | 429 pg/mL |  | 
B5 | 0.54 fold | 0.54 fold |  |  | 53.7% | 417 pg/mL |  | 

These binders were tested against Human GAL9 protein (Acro Biosystems, Human Gal9 His-tag Cat #LG9-H5244) (human) (assay: Octet BLI, IgG1 immobilised on biosensor, GAL9 analyte dilution series, global fit (monovalent affinity)).
Sequence of Human GAL9 protein (Acro Biosystems, Human Gal9 His-tag Cat #LG9-H5244) (human) (chain, as listed by the source): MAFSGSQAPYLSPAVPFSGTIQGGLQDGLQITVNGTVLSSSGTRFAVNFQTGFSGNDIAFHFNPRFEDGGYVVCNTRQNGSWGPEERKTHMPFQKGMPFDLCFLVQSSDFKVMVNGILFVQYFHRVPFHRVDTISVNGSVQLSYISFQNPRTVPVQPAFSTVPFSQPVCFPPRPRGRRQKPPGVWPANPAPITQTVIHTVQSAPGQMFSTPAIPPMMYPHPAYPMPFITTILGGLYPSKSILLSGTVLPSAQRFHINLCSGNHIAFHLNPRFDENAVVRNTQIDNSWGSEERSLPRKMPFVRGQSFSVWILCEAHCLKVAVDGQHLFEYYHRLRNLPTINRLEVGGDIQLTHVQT

Binder | Kd
B1 | 6.55 nM
B2 | 5.41 nM
B6 | 3.48 nM
B7 | 1.21 nM
B4 | 4.54 nM
B5 | 2.56 nM
